The target in experiment [1] is human Fms-like tyrosine kinase 3 receptor (Flt-3R), GFP-tagged, on stable HEK-293 cells (HEK-293-hFlt-3R) (human) (UniProt P36888).
Experiment [2] has the same target. The experiment is described as follows: ELISA; competition on cells: HEK-293-hFlt-3R cells preincubated 1 h with 100-fold excess of nonbiotinylated pUL7 (5 ug/ml), Flt-3L (5 ug/ml), anti-Flt-3R antibody (1:100) or control antibody, washed with MEM, then incubated with 50 ng/ml biotinylated pUL7; HRP-streptavidin, absorbance at 450 nm. In general terms: In an ELISA, binding on a coated surface is turned into a signal by an enzyme label.

Experiment [3] addresses T1, human Fms-like tyrosine kinase 3 receptor (Flt-3R), GFP-tagged, on stable HEK-293 cells (HEK-293-hFlt-3R) (human, UniProt P36888 27-993).
T1 construct: human fms-tyrosine kinase 3 (FLT3), GFP-tagged, from plasmid OriGene RG211459, expressed on HEK-293 cells; In the functional rows from RS4;11 cells the receptor was the endogenous human Flt-3R of those cells, not this construct; also called human Flt-3 receptor; source: HEK-293, stably transfected (OriGene plasmid RG211459, G418 selection), on cells
T1 sequence (looked up): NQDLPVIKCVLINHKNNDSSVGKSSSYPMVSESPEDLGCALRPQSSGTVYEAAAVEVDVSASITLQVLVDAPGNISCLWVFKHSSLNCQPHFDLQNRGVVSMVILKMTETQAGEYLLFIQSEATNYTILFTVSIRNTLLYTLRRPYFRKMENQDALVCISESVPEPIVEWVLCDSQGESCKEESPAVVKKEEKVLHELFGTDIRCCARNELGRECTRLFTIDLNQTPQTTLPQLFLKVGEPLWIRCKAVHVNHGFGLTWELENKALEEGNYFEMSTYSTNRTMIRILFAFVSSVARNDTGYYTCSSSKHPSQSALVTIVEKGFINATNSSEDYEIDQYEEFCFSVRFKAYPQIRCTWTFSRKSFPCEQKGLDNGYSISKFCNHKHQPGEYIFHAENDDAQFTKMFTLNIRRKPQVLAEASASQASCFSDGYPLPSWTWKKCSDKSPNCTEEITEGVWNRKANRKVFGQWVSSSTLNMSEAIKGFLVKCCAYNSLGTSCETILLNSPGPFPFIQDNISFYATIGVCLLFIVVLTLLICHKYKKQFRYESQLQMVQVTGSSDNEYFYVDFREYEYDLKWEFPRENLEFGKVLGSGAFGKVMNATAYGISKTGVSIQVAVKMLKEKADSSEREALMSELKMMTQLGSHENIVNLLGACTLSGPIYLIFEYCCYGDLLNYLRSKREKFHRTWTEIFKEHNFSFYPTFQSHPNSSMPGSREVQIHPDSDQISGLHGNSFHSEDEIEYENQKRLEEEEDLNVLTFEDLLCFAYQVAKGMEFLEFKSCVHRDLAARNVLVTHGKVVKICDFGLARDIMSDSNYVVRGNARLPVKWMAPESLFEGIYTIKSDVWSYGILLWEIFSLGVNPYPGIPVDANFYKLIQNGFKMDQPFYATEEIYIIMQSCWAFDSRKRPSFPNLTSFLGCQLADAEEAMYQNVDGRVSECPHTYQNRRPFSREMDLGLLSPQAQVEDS
Described as above. To be noted: one partner purified.

On to “purified UL7 (pUL7), recombinant UL7 protein from HCMV TB40E, nonbiotinylated (Fc fusion)”, for which, in experiment [1], the phosphorylation of Akt (immunoblot) in serum-starved RS4;11 cells stimulated with 50 ng/ml pUL7, within 10 min, fold compared to the Fc control is 8 fold; the phosphorylation of ERK1/2 (immunoblot) in serum-starved RS4;11 cells stimulated with 50 ng/ml pUL7, within 10 min, fold compared to the Fc control is 9 fold; the phosphorylation of Flt-3R (immunoblot) in serum-starved RS4;11 cells stimulated with 50 ng/ml pUL7, within 10 min, fold compared to the Fc control was found to be 14 fold. The percent reduction in binding of biotinylated pUL7 (100-fold excess of competitor) in experiment [2] was 62%.

B1: recombinant human Flt-3 ligand (Flt-3L) (ligand, UniProt P49771 27-184, looked up)
chain: TQDCSFQHSPISSDFAVKIRELSDYLLQDYPVTVASNLQDEELCGGLWRLVLAQRWMERLKTVAGSKMQGLLERVNTEIHFVTKCAFQPPPSCLRFVQTNISRLLQETSEQLVALKPWITRQNFSRCLELQCQPDSSTLPPPWSPRPLEATAPTAPQP
notes: recombinant human Flt-3 ligand, soluble; No catalogue number is printed; also called soluble Flt-3 ligand; 100XFlt-3L; source: bought: R&S Systems (so in the source)
For B1, the “percent reduction in binding of biotinylated pUL7 (100-fold excess of competitor)” value in experiment [3] was determined as 63%.

These data come from article PMC5915732, “Human Cytomegalovirus Encodes a Novel FLT3 Receptor Ligand Necessary for Hematopoietic Cell Differentiation and Viral Reactivation” (mBio, 2018).
